We go through ten molecules from patent US6632621B1, “G protein-coupled receptor-like receptors and modulators thereof” (priority 1999, dated 2003).

Where a SMILES comes first, the peptide text is derived from it. Where no end group is shown, it is not given here. [ ]: non-standard residue; d: D form. Tyr(3-I) = N[C@@H](Cc1ccc(O)c(I)c1)C(=O)O; Nle = CCCC[C@H](N)C(=O)O

Test [1] concerns the target CEGPCR19.2 (Caenorhabditis elegans, UniProt H2KZY4). Description: calcium mobilization assay (FLIPR), transiently transfected CHO cells, CEGPCR19.2. Format: cell-based, C. elegans. The conditions noted are these: Table 13; peptides at 10 μM. How it is done:
Changes in intracellular calcium levels are another recognized indicator of […] receptor activity, and such assays can be employed to assay for modulators of GPCR-like receptor activity. For example, CHO cells stably transfected with a GPCR-like receptor expression construct are plated at a density of 4×10^4 cells/well in Packard black-walled 96-well plates specially designed to isolate fluorescent signals to individual wells. The cells are incubated for 60 minutes at 37° C. in modified Dulbecco's PBS (D-PBS), containing 36 mg/L pyruvate and 1 g/L glucose with the addition of 2.5 mM probenecid (Sigma Chemical Co.) and one of four calcium indicator dyes (Fluo3™ AM, Fluo4™ AM, Calcium Green™-1 AM, or Oregon Green™ 488 BAPTA-1 AM) at a concentration of 4 μM. Plates are washed once with modified D-PBS […] 1% fetal bovine serum and incubated for 10 minutes at 37° C. to remove residual dye from the cellular membrane. In addition, a series of washes with modified D-PBS is performed immediately prior to activation of the calcium response.
Calcium response is initiated by the addition of one or more candidate receptor agonist compounds, or a positive control such as a calcium ionophore A23187 (10 μM), or ATP (4 μM). Fluorescence is measured by Molecular Device's FLIPR with an argon laser, excitation at 488 nm. […] Basal fluorescence of cells was measured for 20 seconds prior to addition of agonist, ATP, or A23187, and was subtracted from the response signal. The calcium signal is measured for approximately 200 seconds, taking readings every two seconds. […]
This appears especially useful for the assessment of possible activation of orphan GPCRs (i.e., GPCRs having unknown functions and unknown signaling pathways). […] Because the GTPγS assay is known to poorly recognize GPCRs coupled to the Gq class of G-proteins, a Ca^+2 mobilization assay, based on a FLIPR readout, was used as well to evaluate putative Gq-couplcd orphan GPCRs transiently transfected into CHO cells. […] Without the temperature downshift, expression of functional receptor could not be detected. […]

Test [2] concerns the target T1, CEGPCR7 receptor (Caenorhabditis elegans, UniProt Q18534).
T1 construct: Each of the 22 putative GPCR-like receptor clones appeared to contain a full-length coding region; expressed in transfected cells; host or cells: CHO-K1, transient, pCR3.1 clone, 37 to 28 C temperature shift
T1 sequence (Q18534 1-457): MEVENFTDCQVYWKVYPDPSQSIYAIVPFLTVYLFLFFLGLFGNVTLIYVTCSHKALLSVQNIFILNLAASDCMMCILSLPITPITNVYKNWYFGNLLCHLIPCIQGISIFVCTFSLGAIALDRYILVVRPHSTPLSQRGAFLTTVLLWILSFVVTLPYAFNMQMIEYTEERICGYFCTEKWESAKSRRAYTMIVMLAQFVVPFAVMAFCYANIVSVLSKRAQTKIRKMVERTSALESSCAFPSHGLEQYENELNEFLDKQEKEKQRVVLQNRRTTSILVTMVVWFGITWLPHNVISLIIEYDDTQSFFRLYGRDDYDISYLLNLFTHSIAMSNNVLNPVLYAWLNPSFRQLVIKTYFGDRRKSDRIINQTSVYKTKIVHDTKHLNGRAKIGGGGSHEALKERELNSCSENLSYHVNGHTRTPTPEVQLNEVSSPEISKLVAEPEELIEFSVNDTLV
Description: [35S]GTPγS binding assay, membranes of CHO cells transfected with CEGPCR7. Format: biochemical, C. elegans. How it is done:
(§1) Recombinant pCR3.1 clones encoding invertebrate GPCR-like receptors were transformed into wild-type CHO-K1 cells and functional expression was achieved using a temperature-shift incubation protocol. The CHO-K1 cells were cultured at 37° C. in a humidified atmosphere of 5% CO2 in air in DMEM medium supplemented with 10% heat-inactivated fetal bovine serum (i.e., FBS), 10 μg/ml gentamicin, and 0.1 mM nonessential amino acids to give complete DMEM medium. Additionally, for incubations at temperatures lower than 37° C., the medium was fortified with 10 mM HEPES (pH 7.4). Cells were transfected with recombinant pCR3.1 clones containing GPCR-like receptor DNAs, using LipofectAMINE PLUS™, essentially according to the manufacturer's instructions. […] In separate plastic tubes, PLUS (20 μl/plate; Life Technologies) was added to 0.75 ml/plate of recombinant plasmid DNA in OptiMEM (5 μg/plate; Gibco/BRL—Life Technologies), mixed and incubated at room temperature for 15 minutes. Separately, LipofectAMINE (30 μl/plate) was mixed with 0.75 ml OptiMEM and added to the pre-complexed DNA/PLUS mixture and incubated at room temperature for 15 minutes. The culture medium was then replaced with serum-free transfection medium (DMEM, 5 ml/plate). The DNA-PLUS-LipofectAMINE complex was then added to the plates (1.5 ml/plate) and mixed gently into the medium, followed by a 3 hour incubation at 37° C. in 5% CO2. At this time, the medium was supplemented with complete DMEM medium containing 20% FBS (6.5 ml/plate) and incubation was continued at 37° C. in 5% CO2. After a total of 24 hours at 37° C. in 5% CO2, the medium was replaced with complete DMEM medium fortified with 10 mM HEPES (10 ml/plate) and the cells were moved to an incubator maintained at 28-30° C. in a humidified atmosphere of 5% CO2 in air. The incubation continued for an additional 24 hours, typically at the lower temperature indicated above. A plasmid encoding Green Fluorescent Protein (i.e., GFP, 4 μg/plate) was used for transient GFP expression in CHO-K1 cells to estimate the transfection yields under the same conditions as used for GPCR-like receptor polynucleotides.
(§2) To assess expression, membranes were prepared from transfected CHO-K1 cells. Transfected cells were washed once with ice-cold Dulbecco's phosphate-buffered saline (i.e., PBS), 5 ml per 10 cm plate, and the cells were scraped into 5 ml of the same buffer. Cell suspensions from multiple plates were combined and centrifuged at 500×g for 10 minutes at 4° C. The cell pellet was reconstituted in ice-cold TEE (25 mM Tris, pH 7.4, 5 mM EGTA, 5 mM EDTA). Convenient aliquots were snap-frozen in liquid nitrogen and stored at −70° C. After thawing, the cells were homogenized and centrifuged at 500×g for 5 minutes at 4° C. to pellet nuclei and unbroken cells. Tile supernatant was centrifuged at 47,000×g for 30 minutes at 4° C. The membrane pellet was washed once with TEE, resuspended in 20 mM HEPES, pH 7.4, 100 mM NaCl, 10 mM MgCl2, 1 mM EDTA (assay buffer), distributed into aliquots of 0.5-1.0 ml, and frozen in liquid nitrogen. Membrane aliquots were stored at −70° C. Membrane protein concentration was determined using the BCA Protein Assay Reagent from Pierce (Rockford, Ill.), with bovine serum albumin (i.e., BSA) as a standard.
Aliquots of cell membranes prepared as described above and stored at −70° C. were thawed, homogenized, and diluted into buffer containing 20 mM HEPES, pH 7.4, 10 mM MgCl2, 1 mM EDTA, and 100 mM NaCl at a concentration of 10-50 μg/ml.
A general note: GTPγS resists hydrolysis and so accumulates on activated G proteins.

The target in test [3] is T2, CEGPCR5 (Caenorhabditis elegans, UniProt Q18179).
T2 sequence (Q18179 1-402): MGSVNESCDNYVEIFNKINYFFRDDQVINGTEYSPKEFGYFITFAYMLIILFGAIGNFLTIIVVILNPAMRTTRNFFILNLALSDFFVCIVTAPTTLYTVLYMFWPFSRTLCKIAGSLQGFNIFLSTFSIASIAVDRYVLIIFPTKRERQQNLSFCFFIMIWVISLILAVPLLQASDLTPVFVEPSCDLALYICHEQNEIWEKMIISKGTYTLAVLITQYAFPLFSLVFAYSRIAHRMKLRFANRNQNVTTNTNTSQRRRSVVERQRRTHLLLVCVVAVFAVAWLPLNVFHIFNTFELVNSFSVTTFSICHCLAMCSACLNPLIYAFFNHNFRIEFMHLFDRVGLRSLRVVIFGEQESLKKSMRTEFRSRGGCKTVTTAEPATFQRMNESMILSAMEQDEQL
Description: [35S]GTPγS binding assay, CEGPCR5 expressed in CHO cells. The format is biochemical, C. elegans. Conditions: for EC50: EC50 range. How it is done: as §1, §2
Aliquots of cell membranes prepared as described above and stored at −70° C. were thawed, homogenized, and diluted into buffer containing 20 mM HEPES, pH 7.4, 10 mM MgCl2, 1 mM EDTA, and 100 mM NaCl at a concentration of 10-50 μg/ml. Reaction mixtures were prepared in 96-well polypropylene plate, Nunc. Twenty microliters of a 10× putative modulator compound (including but not limited to potential peptide ligands) solution or a water control (20 μl), 18.2 µM GDP (0.11 ml, 10 μM final concentration), and a membrane preparation were mixed and placed on ice. The modulator/ligand-GDP-membrane mixtures were incubated for 20 minutes at room temperature on a shaking platform and then placed on ice.

For test [4], the target named is T3, CEGPCR4 (C. elegans).
T3 construct: Expressed in CHO cells; also called CEGPCR4 receptor; CEGPCR4/CHO membranes
T3 chain: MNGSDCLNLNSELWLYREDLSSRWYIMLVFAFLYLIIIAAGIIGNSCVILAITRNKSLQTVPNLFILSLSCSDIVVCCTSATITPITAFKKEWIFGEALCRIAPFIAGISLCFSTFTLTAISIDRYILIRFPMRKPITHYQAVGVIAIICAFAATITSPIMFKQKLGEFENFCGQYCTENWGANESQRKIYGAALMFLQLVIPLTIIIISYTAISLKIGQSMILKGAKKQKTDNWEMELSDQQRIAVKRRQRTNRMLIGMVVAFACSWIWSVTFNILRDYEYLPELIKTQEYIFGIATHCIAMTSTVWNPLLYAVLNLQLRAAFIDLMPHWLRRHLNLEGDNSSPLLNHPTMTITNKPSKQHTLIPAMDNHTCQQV
Description: competition binding assay, CEGPCR4/CHO membranes; IC50 range printed once for block r9-r18.

Test [5] deals with T3, CEGPCR4. Description: competition binding assay, CEGPCR4/CHO membranes; IC50 range printed once for block r19-r25.

CEGPCR19.2, sequence (H2KZY4 entry or part of it): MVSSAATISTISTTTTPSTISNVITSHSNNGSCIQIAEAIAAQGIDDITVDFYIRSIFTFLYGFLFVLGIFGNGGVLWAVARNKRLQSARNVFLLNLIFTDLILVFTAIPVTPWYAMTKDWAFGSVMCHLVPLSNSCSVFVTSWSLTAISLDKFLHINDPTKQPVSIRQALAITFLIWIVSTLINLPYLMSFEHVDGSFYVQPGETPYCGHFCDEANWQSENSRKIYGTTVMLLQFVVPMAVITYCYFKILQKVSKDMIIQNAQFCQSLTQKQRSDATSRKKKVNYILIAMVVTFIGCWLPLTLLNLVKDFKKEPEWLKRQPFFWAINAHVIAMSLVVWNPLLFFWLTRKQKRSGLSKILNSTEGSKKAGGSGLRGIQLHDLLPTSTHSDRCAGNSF

SQPNFLRF-NH2: the “activity at single concentration” value in test [1] is recorded as “peptides active”.
On to `CC(C)C[C@H](NC(=O)CNC(=O)[C@@H](N)Cc1ccc(O)c(I)c1)C(=O)NCC(=O)N1CCC[C@H]1C(=O)N[C@@H](CCCNC(=N)N)C(=O)N1CCC[C@H]1C(=O)N[C@@H](CC(C)C)C(=O)N[C@@H](CCCNC(=N)N)C(=O)N[C@@H](Cc1ccccc1)C(N)=O` [[I]Y^0-GLGPRPLRF-NH2] (H-[Tyr(3-I)]GLGPRPLRF-NH2), for which the EC50 (usually the concentration giving half of the maximal effect) in test [2] (EC50, single values) is 237 nM; in test [2] (EC50 range, Table 7, one range for the group of peptides) it was 200 to 250 nM; in test [3], 176 to 273 nM; in test [3] (Table 9, one range for the group of peptides), 80 to 800 nM. For the same molecule, in test [3] (ratio of potency), the “less potent than AF9” value is listed as “about 200 fold”.
Regarding ASPSFIRF-NH2 (flp4) [ASPSFIRF-NH2], the binding result in test [4] is “binds”.
As for SEVPGVLRF-NH2 (flp18) [SEVPGVLRF-NH2], the binding result in test [4] was “binds”.
For KPNFLRF-NH2 (flp1) [KPNFLRF-NH2], in test [5], the binding result is listed as “binds”.

B1: ILNleRF-NH2 (peptide)
peptide: IL[Nle]RF-NH2
modifications: N-terminus assumed
SMILES: CCCC[C@H](NC(=O)[C@H](CC(C)C)NC(=O)[C@@H](N)[C@@H](C)CC)C(=O)N[C@@H](CCCNC(=N)N)C(=O)N[C@@H](Cc1ccccc1)C(N)=O
notes: synthetic
For the molecule B1, in test [5], the binding result is “binds”.
With DFDGAMPGVLRF-NH2 (flp18) [DFDGAMPGVLRF-NH2], the binding result in test [4] is given as “binds”.
On to KSVPGVLRF-NH2 (flp18) [KSVPGVLRF-NH2], for which the binding result in test [4] is listed as “binds”.
Same read-out and setting: with SVPGVLRF-NH2 (flp18) [SVPGVLRF-NH2] the entry was “binds”.
Turning to GNSFLRF-NH2 (also called GNSFLRFamide) [GNSFLRF-NH2], the binding result in test [5] is recorded as “binds”.
